Reference: patent US20180244769A1 (Ablynx, published 2018)
Each block holds one binder with its values, some of them ahead of it.

Columns and labels:
[1] = target: human P2X7 (hP2X7) (human) (UniProt Q99572); experiment: cell-based or functional assay
[2] = target: human P2X7 (hP2X7) (human) (UniProt Q99572); experiment: flow cytometry, HEK cells co-transfected with GFP and hP2X7, bound antibody detected with Alexa647 anti-mouse IgG; other quadrants: UL 1.5, LL 16, LR 11
[3] = target: human P2X7 (hP2X7) (human) (UniProt Q99572); experiment: flow cytometry of whole blood of one donor, gate on lymphocytes, Alexa647 conjugate with anti-CD4; unblocked = pre-incubated with control 1067-Fc
mouse P2X7 (mP2X7) = target: T1, mouse P2X7 (mP2X7) (mus musculus, UniProt Q9Z1M0 1-595); experiment: flow cytometry, HEK cells co-transfected with GFP and mP2X7, detection with Alexa647 anti-mouse IgG
T1 construct: Also used here for endogenous P2X7 on Yac-1 cells, primary mouse lymphocytes and macrophages
T1 chain: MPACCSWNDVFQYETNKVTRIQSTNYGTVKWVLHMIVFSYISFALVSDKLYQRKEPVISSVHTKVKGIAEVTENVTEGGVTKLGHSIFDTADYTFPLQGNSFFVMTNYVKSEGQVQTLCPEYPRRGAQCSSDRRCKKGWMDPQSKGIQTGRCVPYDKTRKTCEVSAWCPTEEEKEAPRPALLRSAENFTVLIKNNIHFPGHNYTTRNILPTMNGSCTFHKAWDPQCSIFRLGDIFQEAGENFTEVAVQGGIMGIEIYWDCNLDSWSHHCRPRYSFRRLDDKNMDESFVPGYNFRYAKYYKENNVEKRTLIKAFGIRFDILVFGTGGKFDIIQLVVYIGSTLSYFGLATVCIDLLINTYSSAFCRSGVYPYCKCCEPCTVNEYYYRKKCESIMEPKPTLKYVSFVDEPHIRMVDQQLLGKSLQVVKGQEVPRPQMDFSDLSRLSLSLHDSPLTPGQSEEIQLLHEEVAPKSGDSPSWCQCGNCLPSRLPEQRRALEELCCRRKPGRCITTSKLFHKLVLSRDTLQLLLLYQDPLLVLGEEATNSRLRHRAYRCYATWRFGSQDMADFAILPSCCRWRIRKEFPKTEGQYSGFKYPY
Source text: (§1) In order to verify the specificity of the selected Nbs and to determine whether the Nbs would bind also to mouse P2X7 or rat P2X7, HEK cells were co-transfected with expression constructs for GFP and either hP2X7, mP2X7, or rP2X7. Twenty four hours post transfection cells were stained with Nb-Fc fusion proteins or mAb L4 before FACS analyses (FIG. 3). […] By comparison, previously described Nbs 13A7 and 14D5 (WO 2010/070145) recognize mP2X7, but not hP2X7 or rP2X7, mAb L4 recognizes hP2X7 and rP2X7, but not mP2X7.

[4] = target: human P2X7 (hP2X7) (human) (UniProt Q99572); experiment: flow cytometry of whole blood of one donor, gate on lymphocytes, Alexa647 conjugate with anti-CD4; unblocked = pre-incubated with control 1067-Fc; lower quadrants 24 and 19
[5] = target: human P2X7 (hP2X7) (human) (UniProt Q99572); experiment: flow cytometry of whole blood of one donor, gate on lymphocytes, Alexa647 conjugate with anti-CD4; blocked = pre-incubated with excess unlabelled Nb-Fc (legend: 3 ug each of 1c113-Fc and 3c23-Fc); lower quadrants 44 and 54
[6] = target: human P2X7 (hP2X7) (human) (UniProt Q99572); experiment: flow cytometry, HEK cells co-transfected with GFP and hP2X7, bound antibody detected with Alexa647 anti-mouse IgG; other quadrants: UL 0.8, LL 12, LR 15
rat P2X7 (rP2X7) = target: T2, rat P2X7 (rP2X7) (Rattus norvegicus, UniProt Q64663 1-595); experiment: flow cytometry, HEK cells co-transfected with GFP and rP2X7, detection with Alexa647 anti-mouse IgG
T2 sequence: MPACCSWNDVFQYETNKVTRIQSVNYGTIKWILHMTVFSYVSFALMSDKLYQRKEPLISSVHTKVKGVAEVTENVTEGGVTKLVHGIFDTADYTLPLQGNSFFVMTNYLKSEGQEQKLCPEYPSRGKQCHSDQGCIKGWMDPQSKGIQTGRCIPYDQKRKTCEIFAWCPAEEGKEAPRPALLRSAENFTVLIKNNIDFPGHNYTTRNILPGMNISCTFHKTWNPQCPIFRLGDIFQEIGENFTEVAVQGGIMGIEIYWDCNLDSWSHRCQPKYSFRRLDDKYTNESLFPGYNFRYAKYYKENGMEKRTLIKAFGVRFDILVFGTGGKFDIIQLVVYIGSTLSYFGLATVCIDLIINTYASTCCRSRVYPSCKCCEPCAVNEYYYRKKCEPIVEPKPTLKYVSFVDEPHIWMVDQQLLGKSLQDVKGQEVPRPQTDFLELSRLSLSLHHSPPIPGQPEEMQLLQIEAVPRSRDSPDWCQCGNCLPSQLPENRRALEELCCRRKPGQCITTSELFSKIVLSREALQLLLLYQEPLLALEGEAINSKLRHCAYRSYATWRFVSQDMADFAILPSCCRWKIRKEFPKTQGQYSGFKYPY
Source text: as §1

[7] = target: human P2X7 (hP2X7) (human) (UniProt Q99572); experiment: flow cytometry, HEK cells co-transfected with GFP and hP2X7, bound antibody detected with Alexa647 anti-mouse IgG; other quadrants: UL 72, LL 26, LR 0.5
[8] = target: human P2X7 (hP2X7) (human) (UniProt Q99572); experiment: flow cytometry, HEK cells co-transfected with GFP and hP2X7, bound antibody detected with Alexa647 anti-mouse IgG; other quadrants: UL 0.7, LL 12, LR 15
[9] = target: human P2X7 (hP2X7) (human) (UniProt Q99572); experiment: flow cytometry of whole blood of one donor, gate on lymphocytes, Alexa647 conjugate with anti-CD4; unblocked = pre-incubated with control 1067-Fc; lower quadrants 23 and 19
[10] = target: human P2X7 (hP2X7) (human) (UniProt Q99572); experiment: flow cytometry of whole blood of one donor, gate on lymphocytes, Alexa647 conjugate with anti-CD4; blocked = pre-incubated with excess unlabelled Nb-Fc (legend: 3 ug each of 1c113-Fc and 3c23-Fc); lower quadrants 44 and 55
[11] = target: human P2X7 (hP2X7) (human) (UniProt Q99572); experiment: flow cytometry, HEK cells co-transfected with GFP and hP2X7, bound antibody detected with Alexa647 anti-mouse IgG; other quadrants: UL 71, LL 27, LR 0.5

human P2X7 (hP2X7) (human), sequence (Q99572 whole entry): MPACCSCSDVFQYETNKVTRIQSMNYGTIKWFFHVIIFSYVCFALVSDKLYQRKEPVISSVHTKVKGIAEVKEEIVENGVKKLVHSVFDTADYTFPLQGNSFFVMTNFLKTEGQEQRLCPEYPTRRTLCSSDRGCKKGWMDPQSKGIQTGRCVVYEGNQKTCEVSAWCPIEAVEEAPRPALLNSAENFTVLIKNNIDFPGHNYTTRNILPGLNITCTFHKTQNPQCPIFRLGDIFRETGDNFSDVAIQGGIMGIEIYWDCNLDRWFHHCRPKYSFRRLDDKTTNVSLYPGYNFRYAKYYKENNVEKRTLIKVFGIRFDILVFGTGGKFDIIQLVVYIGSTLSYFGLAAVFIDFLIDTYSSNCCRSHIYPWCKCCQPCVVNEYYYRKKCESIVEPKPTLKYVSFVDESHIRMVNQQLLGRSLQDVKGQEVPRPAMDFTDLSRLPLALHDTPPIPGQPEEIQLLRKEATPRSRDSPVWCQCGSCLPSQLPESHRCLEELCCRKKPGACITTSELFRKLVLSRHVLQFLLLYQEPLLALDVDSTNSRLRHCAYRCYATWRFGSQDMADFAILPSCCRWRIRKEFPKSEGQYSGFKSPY

- IC50 [nM], blockade of L-selectin (CD62L) shedding in transfected HEK cells, 4 mM ATP [1]: 100 nM
- IC50 [ng/ml], blockade of L-selectin (CD62L) shedding in transfected HEK cells, 4 mM ATP [1]: 1500 ng/mL
B1: Nb 1c81 (monovalent) (VHH)
VHH: EVQLVESGGKLVQAGGSLRLSCSASGRTFSFSTSTMGWFRQAPGKELEFVAAIDWSDFNTYYADSVKGRFTISRHNPRNSVYLQLNSLKPEDTAVYYCAAHSETRGGTRYFDRPSLYNYWGQGTQVTVSS

- % of cells in the GFP+ / anti-mIgG A647+ quadrant (upper right) [2]: 71%
- IC50 [nM], blockade of L-selectin (CD62L) shedding in transfected HEK cells, 4 mM ATP [1]: 5 nM
- IC50 [ng/ml], blockade of L-selectin (CD62L) shedding in transfected HEK cells, 4 mM ATP [1]: 400 ng/mL
- fold enhanced potency to block activation of P2X7, Nb-Fc fusion protein against its monovalent counterpart [1]: 5 to 20 fold
- molar inhibition potency relative to monovalent 1c81 (CD62L shedding) [1]: 20 fold
B2: 1c81-Fc (Nb 1c81 fused to the Fc-domain of mouse IgG1) (Fc fusion, not shown: small tags and cut ends; a dimerising Fc or GST)
chain: EVQLVESGGKLVQAGGSLRLSCSASGRTFSFSTSTMGWFRQAPGKELEFVAAIDWSDFNTYYADSVKGRFTISRHNPRNSVYLQLNSLKPEDTAVYYCAAHSETRGGTRYFDRPSLYNYWGQGTQVTVSSA

- MFI (AF647) of CD4+ lymphocytes, unblocked [3]: 17
- MFI (AF647) of CD4- lymphocytes, unblocked [3]: 14
- binding result (mouse P2X7 (mP2X7)): no binding
- % of lymphocytes in the CD4+ / AF647+ quadrant (upper right), unblocked [4]: 35%
- % of lymphocytes in the CD4- / AF647+ quadrant (upper left), unblocked [4]: 22%
- % of lymphocytes in the CD4+ / AF647+ quadrant (upper right), blocked [5]: 0.7%
- % of lymphocytes in the CD4- / AF647+ quadrant (upper left), blocked [5]: 0.8%
- IC50 [nM], blockade of L-selectin (CD62L) shedding in transfected HEK cells, 4 mM ATP [1]: > 35 nM
- IC50 [ng/ml], blockade of L-selectin (CD62L) shedding in transfected HEK cells, 4 mM ATP [1]: > 2800 ng/mL
- % of cells in the GFP+ / anti-mIgG A647+ quadrant (upper right) [6]: 72%
- binding result (rat P2X7 (rP2X7)): no binding
B3: 1c113-Fc (pME 1c113-mIgG1Fc_LSF) (Fc fusion)
chain: DYKDDDDKRSMAEVQLVESGGGLVQPGGSLTLSCAASGIAFNYYSMSWHRQAPGKQRTLVADISPGGHTEYEDSVKGRFTISRDNFKNTMTLHMNSLKPEDTAVYFCAARLRFEVSSNYWGQGTQVTVSSLEPRDCGCKPCICTVPEVSSEVSSVFIFPPKPKDVLLISLFPKVTCVVVDISKDDPEVQFSWFVDDVEVHTAQTQPREEQFNSTFRSVSELPIMHQDWLNGKEFKCRVNSAAFPAPIEKTISKTKGRPKAPQVYTIPPPKEQMAKDKVSLTCMITDFFPEDITVEWQWNGQPAENYKNTQPIMDTDGSYFVYSKLNVQKSNWEAGNTFTCSVLHEGLHNHHTEKSLSHSPGKGK
notes: Used unconjugated or conjugated to Alexa647; also called WD1c113Fc; Nb 1c113-Fc

- IC50 [nM], blockade of L-selectin (CD62L) shedding in transfected HEK cells, 4 mM ATP [1]: 2.7 nM
- IC50 [ng/ml], blockade of L-selectin (CD62L) shedding in transfected HEK cells, 4 mM ATP [1]: 40 ng/mL
B4: Nb 3c23 (monovalent) (VHH)
VHH: EVQLVESGGGLVQAGGSLRLSCAASGRTFRHYAMGWFRQAPGKEREFVAAISSYGSTDYGDSVKGRFTISRDDAKNTVPLQMNSLKPEDTAVYYCAAADETLGAVPNFRLHEKYEYEYWGQGTQVTVSS

- binding result (rat P2X7 (rP2X7)): no binding
- % of cells in the GFP+ / anti-mIgG A647+ quadrant (upper right) [7]: 1.2%
B5: 14D5-Fc (Nb-Fc fusion protein of Nb 14D5) (Fc fusion)
chain: KVQLVESGGGLVQAGGSLRLSCAASGSPISSYAMGWYRQAPGKPRELVARIYTGGTAWYEDSVKGRFTISRDNAQNTVYLQMNSLKSEDTAVYYCHGRVRYDYWGQGTQVTVSS
notes: Nb-Fc fusion; not shown: Fc part

- % of cells in the GFP+ / anti-mIgG A647+ quadrant (upper right) [8]: 72%
- % of lymphocytes in the CD4+ / AF647+ quadrant (upper right), unblocked [9]: 35%
- % of lymphocytes in the CD4- / AF647+ quadrant (upper left), unblocked [9]: 24%
- MFI (AF647) of CD4+ lymphocytes, unblocked [3]: 17
- MFI (AF647) of CD4- lymphocytes, unblocked [3]: 14
- binding result (mouse P2X7 (mP2X7)): no binding
- IC50 [nM], blockade of L-selectin (CD62L) shedding in transfected HEK cells, 4 mM ATP [1]: 0.6 nM
- IC50 [ng/ml], blockade of L-selectin (CD62L) shedding in transfected HEK cells, 4 mM ATP [1]: 50 ng/mL
- fold enhanced potency to block activation of P2X7, Nb-Fc fusion protein against its monovalent counterpart [1]: 5 to 20 fold
- molar inhibition potency relative to monovalent 3c23 (CD62L shedding) [1]: 4 fold
- % of lymphocytes in the CD4+ / AF647+ quadrant (upper right), blocked [10]: 0.4%
- % of lymphocytes in the CD4- / AF647+ quadrant (upper left), blocked [10]: 0.7%
- binding result (rat P2X7 (rP2X7)): no binding
B6: 3c23-Fc (Nb 3c23 fused to the Fc-domain of mouse IgG1) (Fc fusion)
chain: EVQLVESGGGLVQAGGSLRLSCAASGRTFRHYAMGWFRQAPGKEREFVAAISSYGSTDYGDSVKGRFTISRDDAKNTVPLQMNSLKPEDTAVYYCAAADETLGAVPNFRLHEKYEYEYWGQGTQVTVSSA
notes: Bivalent N-terminally FLAG-tagged Nb-Fc fusion protein made in HEK cells; Used unconjugated or conjugated to Alexa647; also called WD3c23Fc; Nb 3c23-Fc; not shown: N-terminal FLAG tag; Fc-domain of mouse IgG1

- IC50 [nM], blockade of L-selectin (CD62L) shedding in transfected HEK cells, 4 mM ATP [1]: > 185 nM
- IC50 [ng/ml], blockade of L-selectin (CD62L) shedding in transfected HEK cells, 4 mM ATP [1]: > 2800 ng/mL
B7: Nb 1c113 (monovalent) (VHH)
VHH: EVQLVESGGGLVQPGGSLTLSCAASGIAFNYYSMSWHRQAPGKQRTLVADISPGGHTEYEDSVKGRFTISRDNFKNTMTLHMNSLKPEDTAVYFCAARLRFEVSSNYWGQGTQVTVSS

- % of cells in the GFP+ / anti-mIgG A647+ quadrant (upper right) [11]: 1.2%
- binding result (rat P2X7 (rP2X7)): no binding
B8: 13A7-Fc (Nb-Fc fusion protein of Nb 13A7) (Fc fusion)
chain: EVQLVESGGGLVQPGESLRLSCTASRFMLDYYDIGWFRQAPGKEREGVSCRFTNDGSTAYADSVKGRFTISRDIVKHTVYLQMNSLQPEDTAVYYCAAGPLTKRRQCVPGDFSMDFWGEGTLVTVSS
notes: Nb-Fc fusion; also called fluorochrome-conjugated Nb 13A7; not shown: Fc part
